Patent US20250333515A1

Molecular target: biotinylated recombinant human CLL-1 extracellular domain protein, isoform with lysine at amino acid position 244 (human) (UniProt Q5QGZ9)
Assay: Exp 1 (= Octet, CLL-1-K244 of FIG. 12B); Exp 2: ND

Chain of biotinylated recombinant human CLL-1 extracellular domain protein, isoform with lysine at amino acid position 244 (human) (Q5QGZ9 65-265): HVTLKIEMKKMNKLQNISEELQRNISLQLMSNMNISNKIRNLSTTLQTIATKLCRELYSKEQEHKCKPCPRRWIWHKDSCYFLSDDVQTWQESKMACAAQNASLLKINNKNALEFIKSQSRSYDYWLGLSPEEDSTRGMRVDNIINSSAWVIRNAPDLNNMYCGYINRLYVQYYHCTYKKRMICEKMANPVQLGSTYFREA

Kd: 0.127 nM
Substance: + Control
